Experimental data reported in PMC8406304, “Inhibiting Type VI Secretion System Activity with a Biomimetic Peptide Designed To Target the Baseplate Wedge Complex” (mBio, 2021).

Assays:
[1] = molecular target: TssF-Strep (EAEC) (enteroaggregative Escherichia coli (EAEC) 17-2); test: pull-down; soluble extracts of E. coli BL21(DE3) producing the TssKFGE wedge complex with TssG wild type or foot variants; TssF-Strep used to pull down TssG by affinity purification; level of copurified TssG quantified
[2] = tested on: TssK-TssFGE (TssKFGE wedge complex); test: Biolayer interferometry (BLI), TssFGE binding to biotinylated TssK; format: biochemical, enteroaggregative Escherichia coli (EAEC); conditions: BLI, 47 μM TssFGE lysate, TssK preincubated with 1 mM peptide, kinetic buffer pH 7.3; mean ± SD of three independent assays
Procedure: Streptavidin-tagged TssK was purified as described above. The TssK trimer was further polished by size exclusion chromatography using a Superose 6 10/300 GL (GE Healthcare) in 50 mM HEPES (pH 7.0), 150 mM NaCl at 0.25 ml/min. For biolayer interferometry (BLI) experiments, we used high-precision Strep (SAX) biosensors from Forté Bio (number 18-5117) on the BLItz machine (Forté Bio). The trimeric ligand TssK was biotinylated using equimolar N-hydroxysuccinimide (NHS)–polyethylene glycol 4 (PEG4)–biotin (Pierce EZ-Link; 21330) in 50 mM HEPES (pH 7.0), NaCl 150 mM for 1 h at room temperature before buffer exchange in CentriPure P2 (Generon; IRL) columns against 50 mM HEPES (pH 7.0), NaCl 150 mM to remove the excess biotin. BL21(DE3) cells were used to express the interacting analytes TssG-TssF-TssE. In addition, cells containing an empty plasmid were used as a control. Cells were broken as described above, and the clarified supernatants after centrifugation for 30 min at 20,000 × g contained the control and TssFGE lysate. Streptavidin biosensors were hydrated for 10 min in HEPES buffer before binding of the biotinylated TssK. Biotinylated TssK was loaded at 1.2 μM onto the SAX biosensors for 120 s, and then the excess TssK was dissociated in HEPES buffer for 120 s. For the remaining kinetic assays, we used kinetic buffer (PBS [pH 7.3] plus 0.02% Tween 20, 0.1% bovine serum albumin [BSA], 0.05% sodium azide) (Forté Bio number 18-5032) with orbital shaking at 2,200 rpm. Kinetic buffer (KB) was used to dilute the lysates and the peptide to decrease nonspecific signals. The unbound Strep sites were blocked with 2 μM control lysate for 120 s and washed with KB for 120 s. The kinetic assays were performed using three steps with different times: baseline, 30 s; association, 120 s; and dissociation, 120 s. All the following assays were performed in triplicate. […] In the first assay, we added 47 μM lysate expressing the analytes TssG, TssF, and TssE to the bound TssK. In the second assay, we added 1 mM wild-type (WT) BCP to the bound TssK before adding 47 μM TssF-TssG-TssE. In the third assay, to validate the specificity of the WT BCP we added 1 mM mutant BCP that lacks the binding residues to the bound TssK before adding 47 μM TssF-TssG-TssE. Last, to redemonstrate the specificity of the BCP-WT, we added 1 mM randomized BCP that contains the binding residues but out of order to the bound TssK before adding 47 μM TssF-TssG-TssE.

[3] = molecular target: Strep-tagged TssK (EAEC) (enteroaggregative Escherichia coli (EAEC) 17-2); test: BLI; as a7, but 1 mM mutated BCP added to the bound TssK before 47 μM TssFGE lysate
[4] = molecular target: Strep-tagged TssK (EAEC) (enteroaggregative Escherichia coli (EAEC) 17-2); test: BLI; as a7, but 1 mM randomized BCP added to the bound TssK before 47 μM TssFGE lysate
[5] = molecular target: Strep-tagged TssK (EAEC) (enteroaggregative Escherichia coli (EAEC) 17-2); test: BLI; as a7, but 1 mM wild-type BCP added to the bound TssK before 47 μM TssFGE lysate
[6] = molecular target: Strep-tagged TssK (EAEC) (enteroaggregative Escherichia coli (EAEC) 17-2); test: BLI; biotinylated TssK loaded at 1.2 μM on streptavidin (SAX) biosensors, blocked with control lysate; 47 μM TssFGE lysate in kinetic buffer (PBS pH 7.3, 0.02% Tween 20, 0.1% BSA); no peptide
[7] = molecular target: TssK-6×His (EAEC) (enteroaggregative Escherichia coli (EAEC) 17-2); test: native gel or EMSA; clarified BL21(DE3) lysates on a native 4 to 16% gel, immunoblot with anti-His antibodies
[8] = molecular target: Strep-tagged TssK (EAEC) (enteroaggregative Escherichia coli (EAEC) 17-2); test: ITC; 25 μM TssK in the cell, 1 mM peptide in the syringe; 50 mM HEPES pH 7.0, 150 mM NaCl, 25°C; One Set of Sites model

Flag-tagged TssG (EAEC) (natural protein)
amount of TssG copurified using TssF-based pulldown [1]: 74.8%

Flag-tagged TssG with the foot 1 domain deleted (natural protein)
amount of TssG copurified using TssF-based pulldown [1]: 4.6%

Flag-tagged TssG with the foot 2 domain deleted (natural protein)
amount of TssG copurified using TssF-based pulldown [1]: 1.1%

SRPVAG-SRPVAG-SRPVAG (head to tail) [mutated BCP]
maximum binding average response of TssFGE to TssK at 150 s in presence of peptide [2]: 0.169 ± 0.016 nm

SVRMPG-SPMRVG-SMVRPG (head to tail) [randomized BCP, randomized control version (SVRMPG-SPMRVG-SMVRPG)]
maximum binding average response of TssFGE to TssK at 150 s in presence of peptide [2]: 0.160 ± 0.028 nm

TssF-TssG-TssE (EAEC) (complex)
maximum binding average response at 150 s, TssK preincubated with 1 mM mutated BCP [3]: 0.169 nm
maximum binding average response at 150 s, TssK preincubated with 1 mM randomized BCP [4]: 0.16 nm
maximum binding average response at 150 s, TssK preincubated with 1 mM wild-type BCP [5]: 0.121 nm
maximum binding average response at 150 s association [6]: 0.189 nm

TssK-6×His (EAEC) (natural protein)
stoichiometry N [7]: 3

B1: biomimetic cyclic peptide (BCP) (peptide)
peptide: SRPVMGSRPVMGSRPVMG
modifications: head-to-tail cyclization
Kd [8]: 60 µM
